The record followed here is US8153410B2, “Alternate morpheein forms of allosteric proteins as a target for the development of bioactive molecules” (Fox Chase Cancer Center, priority 2003, dated 2012).

What all share (format): biochemical
Data set [1] has as its target T1, pea PBGS (Pisum sativum, UniProt P30124).
T1 sequence (P30124 69-398 limits assumed): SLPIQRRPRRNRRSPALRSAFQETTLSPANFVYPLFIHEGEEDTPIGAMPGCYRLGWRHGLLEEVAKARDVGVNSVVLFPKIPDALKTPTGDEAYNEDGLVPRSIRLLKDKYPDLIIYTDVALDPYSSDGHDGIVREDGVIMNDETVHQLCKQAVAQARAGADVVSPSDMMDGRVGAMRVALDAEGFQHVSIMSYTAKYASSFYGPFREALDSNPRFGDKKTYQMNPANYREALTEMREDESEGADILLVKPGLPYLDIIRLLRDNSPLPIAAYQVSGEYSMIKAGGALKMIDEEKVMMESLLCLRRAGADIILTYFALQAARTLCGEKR
In words: pea PBGS activity assay (inhibition, protein concentration dependent specific activity). Set-up: made in house. Here is the method: FIG. 32(a) The inhibitor morphlock-1 is illustrated as posed by Glide. The subunits A, B, and E are illustrated as ribbon diagram. Morphlock-1 is shown with carbon atoms and illustrated as ball and stick. FIG. 32(b) The chemical structure of morphlock-1. […] Pea PBGS was incubated with various concentrations of morphlock-1 (in a DMSO solution). Each concentration of morphlock-1 with a fixed amount of DMSO was incubated with protein for 30 minutes at 37° C. prior to resolution on 12.5% polyacrylamide native PhastGels. […] (d) The protein concentration dependence of pea PBGS specific activity is illustrated. […] The final concentration of morphlock-1 in the inhibited assay was 5 μM, and the concentration of PBGS in the inhibited and control assays ranged from 0.05-50 μg/mL (0.014-1.4 μM).
The proteins were incubated in the presence of 10× inhibitor for 30 minutes at 37° C. prior to assay. The concentrations on the X-axis represent the final concentration of morphlock-1 in the assay. FIG. 33(b). […] IC50 values were determined as per part (a) using the noted concentrations of pea PBGS. (c) Native PAGE evaluation of the effect of morphlock-1 on the quaternary structure equilibria of PBGS (˜1 mg/ml) from D. melanogaster, P. aeruginosa, V. cholerae, and H. sapiens. Note that the charge/mass ratio is not the same for PBGS from different species.
The dose response curve for morphlock-1 inhibition of pea PBGS (FIG. 37a) was initially carried out at 0.03 μM pea PBGS, where the hexamer is a significant component of the equilibrium mixture; the morphlock-1 concentration was varied from 0.1 μM to 0.1 mM.
The dose response curve for morphlock-1 inhibition of pea PBGS (FIG. 33(a)) was initially carried out at 0.03 μM pea PBGS, where the hexamer is a significant component of the equilibrium, in order to optimize the observed inhibition; the morphlock-1 concentration was varied from 0.1 μM to 0.1 mM.

Data set [2] has as its target T2, pea PBGS (Pisum sativum, UniProt P30124, C394A).
T2 construct: made in house
In words: native PAGE gel shift of pea PBGS octamer/hexamer equilibrium. The settings on record: pea PBGS C326A hexamer, rosmarinic acid 12.5 μM-12.5 mM preincubated 30 min 37 C, then 1 mM ALA and 1 mM MgCl2. Here is the method: FIG. 32(a) The inhibitor morphlock-1 is illustrated as posed by Glide. The subunits A, B, and E are illustrated as ribbon diagram. Morphlock-1 is shown with carbon atoms and illustrated as ball and stick. FIG. 32(b) The chemical structure of morphlock-1. […] Pea PBGS was incubated with various concentrations of morphlock-1 (in a DMSO solution). Each concentration of morphlock-1 with a fixed amount of DMSO was incubated with protein for 30 minutes at 37° C. prior to resolution on 12.5% polyacrylamide native PhastGels. […] (d) The protein concentration dependence of pea PBGS specific activity is illustrated. PBGS (at varied concentrations) was incubated in the presence of DMSO (●) or 50 μM morphlock-1 in DMSO (∘) for 30 minutes at 37° C. prior to assay. The final concentration of morphlock-1 in the inhibited assay was 5 μM, and the concentration of PBGS in the inhibited and control assays ranged from 0.05-50 μg/mL (0.014-1.4 μM).
FIG. 34(b) Hexameric pea PBGS (1 mg/mL, prepared by dialysis against low ionic strength) was incubated with DMSO (left) or 500 μM morphlock-1 (right) for 30 minutes at 37° C. ALA was added at the indicated concentrations, and the incubation was continued for 30 minutes prior to resolution on 12.5% polyacrylamide native PhastGels. […] Morphlock-1 concentrations are listed at the top of each lane. Protein samples for left-most gel were at 50 μg/ml (1.4 μM subunit) and 1 mM ALA; protein detection is by silver staining. Samples for the middle gel were also at 50 μg/ml (1.4 μM subunit) and 1 mM ALA; the gel was activity stained. Samples for the right-most gel were at 5 μg/ml (0.14 μM subunit) and 10 mM magnesium; protein detection is by Krypton Infrared staining.
FIG. 41 illustrates native PAGE screening of compounds. Octameric PBGS (1 mg/mL) was incubated with DMSO or 2 mM of each compound for 30 minutes at 37° C. prior to resolution on 12.5% polyacrylamide native PhastGels. […] Each compound is identified by its box address. The compound B6 is morphlock-1.
The interconversion of pea PBGS hexamer and octamer is a dynamic equilibrium that responds to protein concentration, substrate concentration, magnesium concentration, inhibitor concentration, and ionic strength.
(In general: Mobility shift assays separate free from complexed probe on a gel.)

For data set [3], the system named is human PBGS. In words: kinetic characterization (Km, Vmax, specific activity) of human PBGS variants with substrate ALA. The settings on record: for Km1 / Vmax1: Table 1; for Vmax2 / Km: Table 3; for Km: read-out: Km2 (Km for the hexamer). Here is the method: All kinetic determinations were carried out in 0.1 M bis-tris propane, 10 mM 2-mercaptoethanol, 10 μM Zn. For the pH rate profiles, the reported pH reflects the assay pH after the addition of 10 mM ALA-HCl. For Km and Vmax determinations, concentrations of ALA were 10 μM, 30 μM, 100 μM, 300 μM, 1 mM, 3 mM, and 10 mM and were each done in duplicate. […] All assays were at 37° C. for a fixed time using Ehrlich's reagent to determine porphobilinogen formed.
The kinetic parameters Km and Vmax of the S300 purified pools were determined at pH 7 and at pH 9 (Table 3 contains data for hetero-hexamers (Pool I) initially at 70% Leu and 30% Phe and for hetero-octamers (Pool II) initially at 30% Leu and 70% Phe). […] With the exception of the trace amount of octamer present for Pool I that is detected at pH 9, all the kinetic values are well determined (see Table 3). […] The factors that govern equilibration of human PBGS heteromers under assay conditions remain to be elucidated.
Km1 and Km2 (both mM) are interpreted as the Km for the octamer and hexamer, respectively.
Using freshly prepared hetero-oligomers of WT+F12L, the Pool I and Pool II proteins were separated chromatographically and then dialyzed for 24 hours at pH 7 in the presence of 10 mM ALA. Following dialysis, the re-equilibrated hetero-oligomers were again separated into their hexameric and octameric components by chromatography on a Mono-Q column. The separated proteins were characterized for their specific activity and for their Phe12 and Leu12 content. The specific activity of hexamer and octamer are dramatically different with hexamer showing optimal activity at pH 9 and the activity of octamer is maximal at pH 7 (Table 4). […] Following chromatographic separation, the proteins were called Pool I hexamer, Pool I octamer, Pool II hexamer, and Pool II octamer and are described below. The peak to elute first on the Mono-Q column runs comparably to the F12L mutant, which is the hexamer. The hexameric structure is substantiated by native gel electrophoresis and by specific activity at pH 7 and pH 9 (FIG. 26A and Table 4). The second peak to elute runs comparably to the WT human PBGS, which is the octamer. The octameric structure is substantiated by native gel electrophoresis and specific activity at pH 7 and pH 9 (FIG. 26A and Table 4). Consistent with the documented characteristics of human PBGS hexamers and octamers, Pool I hexamer and Pool II hexamer have very low activity at pH 7 and considerable activity at pH 9. Pool I octamer and Pool II octamer both show substantially higher activity at pH 7 than at pH 9.

For data set [4], the system named is human PBGS. Description: temperature dependence (Arrhenius plots) of hetero-hexamer to hetero-octamer conversion and of substrate turnover. The settings on record: pH 7.0, 10 mM ALA-HCl. The text has this:
To determine the free energy of activation for the conversion of hetero-hexamers to hetero-octamers, we took advantage of the dramatic differences in the activity of octameric (high activity) and hexameric (low activity) human PBGS at pH 7.0 (3, 5). Because of this difference, the transition from purified hetero-hexamers to a mixture of hetero-hexamers and hetero-octamers under turnover conditions is accompanied by a progressive increase in the specific activity; this process was monitored at several temperatures. Starting with purified hetero-hexamers, (FIG. 34a) the specific activity increased, which is fit to a first-order exponential as exemplified in FIG. 35b (5). […] The time-courses for conversion of hetero-hexamer to hetero-octamer were monitored by periodically removing aliquots from the incubations and immediately quantifying porphobilinogen using Ehrlich's reagent and calculating specific activities based on the total incubation time. […] An activation energy for hetero-hexamer to hetero-octamer conversion (Ea=63±5 kJ/mol) was determined from the slope of the plot. […] However, we previously monitored this process at 5 μg/ml and 0.9 mg/ml, two widely different enzyme concentrations, by specific activity increase and dynamic light scattering respectively. […]

“Also recorded” adds a separate entry of the source. Read-outs that look alike come from different tables or passages of the source.

T2 sequence (P30124 69-398 C394A): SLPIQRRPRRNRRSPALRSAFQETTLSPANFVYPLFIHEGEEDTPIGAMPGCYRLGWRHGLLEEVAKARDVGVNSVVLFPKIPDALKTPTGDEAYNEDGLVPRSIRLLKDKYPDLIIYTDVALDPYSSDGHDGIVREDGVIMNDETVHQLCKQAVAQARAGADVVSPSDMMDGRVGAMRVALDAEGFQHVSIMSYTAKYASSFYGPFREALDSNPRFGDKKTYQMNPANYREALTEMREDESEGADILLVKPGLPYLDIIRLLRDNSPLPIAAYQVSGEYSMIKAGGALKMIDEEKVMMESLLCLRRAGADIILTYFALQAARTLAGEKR

Usually IC50 stands for the midpoint of a concentration-inhibition curve. Lower therefore signals inhibition by little substance. On to `O=C(/C=C/c1ccc(O)c(O)c1)O[C@H](Cc1ccc(O)c(O)c1)C(=O)O` [rosmarinic acid, benzenepropanoic acid, α-[[(2E)-3-(3,4-dihydroxyphenyl)-1-oxo-2-propenyl]oxy]-3,4-dihydroxy-, (αR)-(9CI), reference compound], for which, in data set [1], the IC50 was ~63 µM and the “mode of inhibition (dependence on preincubation time)” value is recorded as “slow-binding inhibitor”. The “PBGS concentration giving half maximal specific activity after rosmarinic acid treatment” value in data set [1] (30 minute treatment with 30 μM rosmarinic acid, untreated 3.5 μg/ml) came out at 13.5 µg/mL. For the same molecule, the “native gel: conversion of hexamer to octamer by ALA and magnesium” value in data set [2] is listed as “prevent conversion of the hexamer to the octamer; also recorded: stabilizes the hexameric pea PBGS against conversion to the octamer”.

B1: F12L: naturally occurring rare allele variant of human PBGS, hexameric, heterologously expressed in E. coli (protein)
chain: MQPQSVLHSGYLHPLLRAWQTATTTLNASNLIYPIFVTDVPDDIQPITSLPGVARYGVNRLEEMLRPLVEEGLRCVLIFGVPSRVPKDERGSAADSEESPAIEAIHLLRKTFPNLLVACDVCLCPYTSHGHCGLLSENGAFRAEESRQRLAEVALAYAKAGAQVVAPSDMMDGRVEAIKEALMAHGLGNRVSVMSYSAKFASCFYGPFRDAAKSSPAFGDRRCYQLPPGARGLALRAVDRDVREGADMLMVKPGMPYLDIVREVKDKHPDLPLAVYHVSGEFAMLWHGAQAGAFDLKAAVLEAMTAFRRAGADIIITYYTPQLLQWLKEE
Usually Km stands for the substrate concentration at which the rate is half of its maximum. As to B1, in data set [3] (pH 7), the “Specific activities before and after substrate induced disproportionation” value came out at 0.3 µmol/h/mg; the Km1 turned out to be 17.7 ± 1.1 mM; the Vmax1 was 1.14 ± 0.05; the Vmax2 turned out to be 1.14 ± 0.05 µmol/h/mg. The Km in data set [3] (pH 7) stood at 17.7 ± 1.1 mM. In addition, in data set [3] (pH 9), the “Specific activities before and after substrate induced disproportionation” value was determined as 14.5 µmol/h/mg; the Km1 is on record as 4.6 ± 0.1 mM; the Vmax1 was found to be 18.2 ± 0.02; the Vmax2 is 18.2 ± 0.2 µmol/h/mg. Further, in data set [3] (pH 9), the Km is 4.6 ± 0.1 mM. Moreover, the “activation energy for substrate turnover” value in data set [4] was found to be 10.8 ± 0.72 kcal/mol.
